Assay results published in patent US20260242478A1 (published 2026).
Where no end group is shown, it is not given here.

Experiments:
[1] = molecular target: T1, Anti-CD28 Fab (SEQ ID NOs: 696, 697); assay: phage binding ELISA; biotinylated anti-CD28 Fab on neutravidin plate, clonal phage detected with anti-M13 HRP
T1 construct: In the phage ELISA the Fab was biotinylated and captured on neutravidin coated plates
Experimental: (§1) After panning, phage infected bacteria were plated out and colonies picked into 96 well blocks. Clonal phage was then amplified and separated from bacterial cells via centrifugation.
(§2) Clonal phage were harvested as crude supematants and screened via standard ELISAs. […] Prior to the addition of clonal phage, wells were incubated with blocking buffer and CD28 antigen or blocking buffer alone. Without washing or aspirating, clonal phage supematants were then added to the wells and incubated for a short time. Wells were then washed followed by detection of bound phage using a horse radish conjugated anti-M13 antibody. Clonal phage of interest were then sent for sequence analysis.

[2] = molecular target: T1, Anti-CD28 Fab (SEQ ID NOs: 696, 697); assay: phage binding ELISA; Fab-coated wells pre-incubated with CD28 antigen as competitor, phage detected with anti-M13 HRP
Experimental: as §1, §2

T1 sequence (VH, as listed by the source, chain 1 of 2): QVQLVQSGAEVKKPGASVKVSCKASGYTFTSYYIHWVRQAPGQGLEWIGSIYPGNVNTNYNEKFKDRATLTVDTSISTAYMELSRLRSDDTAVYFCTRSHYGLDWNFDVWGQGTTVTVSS
T1 sequence (VL, as listed by the source, chain 2 of 2): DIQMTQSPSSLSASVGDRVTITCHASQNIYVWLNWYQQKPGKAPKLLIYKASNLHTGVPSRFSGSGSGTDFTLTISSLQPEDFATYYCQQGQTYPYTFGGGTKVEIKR

| Binder | Anti-CD28 Fab signal (phage binding ELISA) [1] | Anti-CD28 Fab signal in the presence of CD28 (phage binding ELISA) [2] |
| --- | --- | --- |
| YCDGHQPQYMSKCL (cysteine pairing not given here; also: displayed as fusion to phage pIII, linker not given here) [Phage-1078] | 1.38 | 0.09 |
| YCEGHLPAYMGKCI (cysteine pairing not given here; also: displayed as fusion to phage pIII, linker not given here) [Phage-1082] | 1.37 | 0.09 |
| YCDGHVKEYMYKCL (cysteine pairing not given here; also: displayed as fusion to phage pIII, linker not given here) [Phage-1086] | 1.36 | 0.06 |
| YCDGHLQEYMQKCL (cysteine pairing not given here; also: displayed as fusion to phage pIII, linker not given here) [Phage-1077] | 1.38 | 0.06 |
| YCDGHLALYMWKCL (cysteine pairing not given here; also: displayed as fusion to phage pIII, linker not given here) [Phage-1087] | 1.36 | 0.17 |
| YCDGHSETYLWKCL (cysteine pairing not given here; also: displayed as fusion to phage pIII, linker not given here) [Phage-1081] | 1.37 | 0.1 |
| YCAGHTSEYMSKCL (cysteine pairing not given here; also: displayed as fusion to phage pIII, linker not given here) [Phage-1084] | 1.36 | 0.07 |
| YCDGHMKEYMLKCL (cysteine pairing not given here; also: displayed as fusion to phage pIII, linker not given here) [Phage-1085] | 1.36 | 0.06 |
| YCDGHLSEYIGKCL (cysteine pairing not given here; also: displayed as fusion to phage pIII, linker not given here) [Phage-1079] | 1.37 | 0.06 |
| YCEGHSQLYMAKCL (cysteine pairing not given here; also: displayed as fusion to phage pIII, linker not given here) [Phage-1080] | 1.37 | 0.07 |
| YCEGHLPEYMIKCI (cysteine pairing not given here; also: displayed as fusion to phage pIII, linker not given here) [Phage-1083] | 1.36 | 0.1 |
